Experimental data from US20240384250A1, “FIBROBLAST GROWTH FACTOR 23 MODULATING COMPOUNDS” (THE UAB RESEARCH FOUNDATION, priority 2021, published 2024).
“Also recorded” adds a separate entry of the source.

Key:
Experiment in all cases: Plate-based binding, FGF23 coated, then sKL, heparin or PBS, then Fc-FGFR
Settings in all cases: with sKL, with heparin 0.4 USP, or alone
[1] = biological target: T1, FGF23 binding to FGFR1c (Homo sapiens, UniProt P11362+Q9GZV9)
T1 construct: Fc-coupled FGFR ectodomains were immobilized on protein A/G beads; purchased R&D Systems 2604FG025/CF or 2629FG025/CF; 658FR050
T1 sequence (Q9GZV9 25-251): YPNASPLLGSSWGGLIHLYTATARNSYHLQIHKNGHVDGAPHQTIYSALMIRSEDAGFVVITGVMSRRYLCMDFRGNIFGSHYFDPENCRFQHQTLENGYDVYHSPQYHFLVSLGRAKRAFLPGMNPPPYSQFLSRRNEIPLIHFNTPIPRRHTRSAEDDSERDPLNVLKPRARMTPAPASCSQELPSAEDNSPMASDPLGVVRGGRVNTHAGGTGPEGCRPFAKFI
T1 sequence (P11362 22-376 limits assumed): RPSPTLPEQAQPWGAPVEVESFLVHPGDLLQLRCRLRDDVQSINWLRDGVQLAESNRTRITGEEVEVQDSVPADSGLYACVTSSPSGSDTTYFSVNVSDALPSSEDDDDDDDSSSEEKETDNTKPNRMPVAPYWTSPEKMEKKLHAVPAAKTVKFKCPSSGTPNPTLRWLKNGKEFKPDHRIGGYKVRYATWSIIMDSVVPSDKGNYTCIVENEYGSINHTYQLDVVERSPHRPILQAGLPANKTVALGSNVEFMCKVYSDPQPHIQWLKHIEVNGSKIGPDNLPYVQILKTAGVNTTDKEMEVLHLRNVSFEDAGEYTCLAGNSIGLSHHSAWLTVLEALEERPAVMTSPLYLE
Description: (§1) Proteins were coated on 96-well plates (MaxiSorp; 439454, Thermo Fisher Scientific), and proteins were added to wells in 100 μl of enzyme-linked immunosorbent assay (ELISA) coating buffer (E107, Bethyl Laboratories) with a lid placed overtop and incubated at 4° C. overnight. Plates were washed 5× with 350 μl of assay buffer (50 mM Tris [pH 7.4], 200 mM NaCl, 0.01% Tween 20) on a 50 TS microplate washer (BioTek). Plates were blocked for 1 hour in 200 μl of assay buffer with 0.5% BSA. Plates were washed as before, and proteins were incubated on plates in 100 μl of assay buffer with 0.5% BSA. Proteins or heparin was incubated in orders described in the respective figure legends. Assays using FLAG-tag-based detection were incubated with anti-FLAG coupled to HRP at 1:20,000, and assays using Fc detection were incubated with anti-human Fc coupled to HRP at 1:10,000. Plates were washed as above, and 100 μl of 3,3′,5,5′-tetramethylbenzidine (TMB) substrate (E102, Bethyl Laboratories) was added for 15 to 20 minutes until positive wells developed a dark blue color. Reactions were stopped with ELISA stop solution (E115, Bethyl Laboratories) and analyzed using the Synergy HI plate reader (BioTek) at 450 nm wavelength. […] As a control to remove background absorbance values, wells were coated with an equal amount of BSA to match the amount of protein coated in experimental wells and treated the same as experimental wells. To study the effects of sKL on the binding between paracrine FGFs and FGFRs, plates were run as above except coated with paracrine FGFs. Fc-FGFR1 was preincubated with sKL or vehicle for 60 minutes, and then the combination was added to wells and the assay was run as before.

[2] = biological target: T2, FGF23 binding to FGFR3c (Homo sapiens, UniProt P22607+Q9GZV9)
T2 construct: Fc-coupled FGFR ectodomains were immobilized on protein A/G beads; purchased R&D Systems 2604FG025/CF or 2629FG025/CF; 766FR050
T2 sequence (Q9GZV9 25-251): T1 sequence (Q9GZV9 25-251)
T2 sequence (P22607 23-375 limits assumed): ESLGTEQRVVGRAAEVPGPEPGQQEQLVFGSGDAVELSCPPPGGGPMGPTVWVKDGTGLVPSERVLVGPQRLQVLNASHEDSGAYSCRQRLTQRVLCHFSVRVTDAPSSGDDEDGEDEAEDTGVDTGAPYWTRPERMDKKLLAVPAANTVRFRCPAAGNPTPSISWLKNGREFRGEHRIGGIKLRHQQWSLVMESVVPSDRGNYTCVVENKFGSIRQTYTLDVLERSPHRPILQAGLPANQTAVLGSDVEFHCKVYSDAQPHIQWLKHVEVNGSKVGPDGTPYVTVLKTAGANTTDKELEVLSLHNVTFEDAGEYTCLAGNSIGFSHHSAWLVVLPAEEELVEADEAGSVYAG
Description: as §1

[3] = biological target: T3, FGF23 binding to FGFR2c (Homo sapiens, UniProt P21802)
T3 construct: Fc-coupled FGFR ectodomains were immobilized on protein A/G beads; purchased R&D Systems 2604FG025/CF or 2629FG025/CF; 712FR050
T3 sequence (P21802 22-377 limits assumed): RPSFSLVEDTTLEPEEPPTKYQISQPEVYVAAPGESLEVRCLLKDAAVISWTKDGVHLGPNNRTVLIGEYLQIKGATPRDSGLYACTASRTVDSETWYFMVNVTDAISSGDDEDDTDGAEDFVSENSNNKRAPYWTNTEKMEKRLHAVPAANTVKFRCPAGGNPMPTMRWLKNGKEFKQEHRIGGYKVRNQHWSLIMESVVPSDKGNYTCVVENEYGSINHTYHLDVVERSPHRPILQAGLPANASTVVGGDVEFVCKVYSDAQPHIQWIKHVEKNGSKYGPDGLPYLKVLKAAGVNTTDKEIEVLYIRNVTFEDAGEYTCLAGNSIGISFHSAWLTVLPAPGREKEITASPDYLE
Description: as §1

B1: sKL: recombinant soluble α-klotho ectodomain, mouse aa 35-982 and human aa 34-981, FLAG- or Strep/His-tagged, purified from HEK293 cells (protein)
chain: EPGDGAQTWARFSRPPAPEAAGLFQGTFPDGFLWAVGSAAYQTEGGWQQHGKGASIWDTFTHHPLAPPGDSRNASLPLGAPSPLQPATGDVASDSYNNVFRDTEALRELGVTHYRFSISWARVLPNGSAGVPNREGLRYYRRLLERLRELGVQPVVTLYHWDLPQRLQDAYGGWANRALADHFRDYAELCFRHFGGQVKYWITIDNPYVVAWHGYATGRLAPGIRGSPRLGYLVAHNLLLAHAKVWHLYNTSFRPTQGGQVSIALSSHWINPRRMTDHSIKECQKSLDFVLGWFAKPVFIDGDYPESMKNNLSSILPDFTESEKKFIKGTADFFALCFGPTLSFQLLDPHMKFRQLESPNLRQLLSWIDLEFNHPQIFIVENGWFVSGTTKRDDAKYMYYLKKFIMETLKAIKLDGVDVIGYTAWSLMDGFEWHRGYSIRRGLFYVDFLSQDKMLLPKSSALFYQKLIEKNGFPPLPENQPLEGTFPCDFAWGVVDNYIQVDTTLSQFTDLNVYLWDVHHSKRLIKVDGVVTKKRKSYCVDFAAIQPQIALLQEMHVTHFRFSLDWALILPLGNQSQVNHTILQYYRCMASELVRVNITPVVALWQPMAPNQGLPRLLARQGAWENPYTALAFAEYARLCFQELGHHVKLWITMNEPYTRNMTYSAGHNLLKAHALAWHVYNEKFRHAQNGKISIALQADWIEPACPFSQKDKEVAERVLEFDIGWLAEPIFGSGDYPWVMRDWLNQRNNFLLPYFTEDEKKLIQGTFDFLALSHYTTILVDSEKEDPIKYNDYLEVQEMTDITWLNSPSQVAVVPWGLRKVLNWLKFKYGDLPMYIISNGIDDGLHAEDDQLRVYYMQNYINEALKAHILDGINLCGYFAYSFNDRTAPRFGLYRYAADQFEPKASMKHYRKIIDSNGFPGPETLERFCPEEFTVCTECSFFHTRKS
modifications: left off: small tags and cut ends
notes: recombinant soluble α-klotho ectodomain, mouse aa 35-982 and human aa 34-981, FLAG- or Strep/His-tagged, purified from HEK293 cells
binding of coated FGF23 to Fc-FGFR1c [1]: highest FGF23-sKL affinities; also recorded: increased; also recorded: the strongest
binding of coated FGF23 to Fc-FGFR3c [2]: lower affinity; also recorded: weaker binding
binding of coated FGF23 to Fc-FGFR2c [3]: no binding
